Data on 5 variants can be found in IntAct's records for PubMed 21730963.

The labels stand for the following.
B1: Serine/threonine-protein kinase SCH9 (Saccharomyces cerevisiae), P11792 (parent)
chain: MMNFFTSKSSNQDTGFSSQHQHPNGQNNGNNNSSTAGNDNGYPCKLVSSGPCASSNNGALFTNFTLQTATPTTAISQDLYAMGTTGITSENALFQMKSMNNGISSVNNNNSNTPTIITTSQEETNAGNVHGDTGGNSLQNSEDDNFSSSSTTKCLLSSTSSLSINQREAAAAAYGPDTDIPRGKLEVTIIEARDLVTRSKDSQPYVVCTFESSEFISNGPESLGAINNNNNNNNNNQHNQNQHINNNNENTNPDAASQHHNNNSGWNGSQLPSIKEHLKKKPLYTHRSSSQLDQLNSCSSVTDPSKRSSNSSSGSSNGPKNDSSHPIWHHKTTFDVLGSHSELDISVYDAAHDHMFLGQVRLYPMIHNLAHASQHQWHSLKPRVIDEVVSGDILIKWTYKQTKKRHYGPQDFEVLRLLGKGTFGQVYQVKKKDTQRIYAMKVLSKKVIVKKNEIAHTIGERNILVTTASKSSPFIVGLKFSFQTPTDLYLVTDYMSGGELFWHLQKEGRFSEDRAKFYIAELVLALEHLHDNDIVYRDLKPENILLDANGNIALCDFGLSKADLKDRTNTFCGTTEYLAPELLLDETGYTKMVDFWSLGVLIFEMCCGWSPFFAENNQKMYQKIAFGKVKFPRDVLSQEGRSFVKGLLNRNPKHRLGAIDDGRELRAHPFFADIDWEALKQKKIPPPFKPHLVSETDTSNFDPEFTTASTSYMNKHQPMMTATPLSPAMQAKFAGFTFVDESAIDEHVNNNRKFLQNSYFMEPGSFIPGNPNLPPDEDVIDDDGDEDINDGFNQEKNMNNSHSQMDFDGDQHMDDEFVSGRFEI
partner: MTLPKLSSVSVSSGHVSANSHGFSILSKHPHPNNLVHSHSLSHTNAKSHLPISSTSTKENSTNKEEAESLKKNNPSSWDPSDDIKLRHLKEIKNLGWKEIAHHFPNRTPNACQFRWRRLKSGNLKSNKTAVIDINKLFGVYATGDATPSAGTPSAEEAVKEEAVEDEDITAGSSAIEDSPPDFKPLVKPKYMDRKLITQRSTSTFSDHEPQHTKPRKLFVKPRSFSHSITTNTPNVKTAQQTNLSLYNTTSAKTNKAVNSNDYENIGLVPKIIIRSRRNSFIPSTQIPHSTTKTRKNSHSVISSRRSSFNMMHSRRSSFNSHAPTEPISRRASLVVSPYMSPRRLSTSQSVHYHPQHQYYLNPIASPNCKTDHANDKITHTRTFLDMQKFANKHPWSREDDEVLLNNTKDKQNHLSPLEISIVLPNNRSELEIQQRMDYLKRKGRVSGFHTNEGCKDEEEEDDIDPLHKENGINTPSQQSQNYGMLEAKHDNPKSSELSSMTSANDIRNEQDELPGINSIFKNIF
B2: Transcriptional regulatory protein TOD6 (Saccharomyces cerevisiae), P34219 (parent)
chain: B1 partner
partner: B1 chain
B3: Serine/threonine-protein kinase SCH9 (Saccharomyces cerevisiae), P11792 (parent)
chain: B1 chain
partner: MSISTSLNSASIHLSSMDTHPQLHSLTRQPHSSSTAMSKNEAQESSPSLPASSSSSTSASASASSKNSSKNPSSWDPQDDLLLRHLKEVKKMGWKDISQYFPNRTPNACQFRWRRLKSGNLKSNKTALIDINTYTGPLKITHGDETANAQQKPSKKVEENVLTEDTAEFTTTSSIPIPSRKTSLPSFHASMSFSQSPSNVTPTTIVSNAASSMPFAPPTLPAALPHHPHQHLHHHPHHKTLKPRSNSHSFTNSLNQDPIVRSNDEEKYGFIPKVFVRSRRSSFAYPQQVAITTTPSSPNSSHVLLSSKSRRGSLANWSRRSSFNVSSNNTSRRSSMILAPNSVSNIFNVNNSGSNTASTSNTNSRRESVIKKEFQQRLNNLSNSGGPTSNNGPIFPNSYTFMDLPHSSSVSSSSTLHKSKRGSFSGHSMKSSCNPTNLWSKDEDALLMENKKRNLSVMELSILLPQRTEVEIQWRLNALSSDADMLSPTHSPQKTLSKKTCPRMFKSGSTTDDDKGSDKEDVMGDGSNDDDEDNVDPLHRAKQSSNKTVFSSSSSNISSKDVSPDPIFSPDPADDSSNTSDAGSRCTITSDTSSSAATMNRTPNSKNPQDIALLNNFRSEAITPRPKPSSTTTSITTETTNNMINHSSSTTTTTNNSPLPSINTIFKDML
B4: Transcriptional regulatory protein DOT6 (Saccharomyces cerevisiae), P40059 (parent)
chain: B3 partner
partner: B1 chain
B5: Serine/threonine-protein kinase SCH9 (Saccharomyces cerevisiae), P11792 (parent)
chain: B1 chain
partner: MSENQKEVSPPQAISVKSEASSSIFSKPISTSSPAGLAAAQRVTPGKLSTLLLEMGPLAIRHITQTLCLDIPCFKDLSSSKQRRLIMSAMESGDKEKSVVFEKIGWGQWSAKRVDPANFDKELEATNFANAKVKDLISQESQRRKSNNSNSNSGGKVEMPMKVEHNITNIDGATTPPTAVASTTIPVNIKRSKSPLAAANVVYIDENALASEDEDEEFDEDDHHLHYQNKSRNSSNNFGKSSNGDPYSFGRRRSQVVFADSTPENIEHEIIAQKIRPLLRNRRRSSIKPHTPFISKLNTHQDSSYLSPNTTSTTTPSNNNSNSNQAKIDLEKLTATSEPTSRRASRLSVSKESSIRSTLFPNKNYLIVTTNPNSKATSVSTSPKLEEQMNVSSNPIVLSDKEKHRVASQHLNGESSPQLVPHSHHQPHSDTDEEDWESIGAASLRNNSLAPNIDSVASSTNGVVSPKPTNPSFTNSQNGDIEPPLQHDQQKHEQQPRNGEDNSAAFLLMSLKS

In the first assay the parent is B1. The conditions noted are these: with tod6_yeast TOD6, P34219.
For T6E, the “effect of a mutation on the interaction” value was “increasing interaction”.

In a further assay the parent is B2. The conditions noted are these: with sch9_yeast SCH9, P11792.
L6A: the “effect of a mutation on the interaction” value is given as “decreasing interaction”.

The next assay covers variants of B3. The conditions noted are these: with dot6_yeast DOT6, P40059.
With T6E, the “effect of a mutation on the interaction” value is “increasing interaction”.

A further assay covers variants of B4. The conditions noted are these: with sch9_yeast SCH9, P11792.
In the case of T5A, the “effect of a mutation on the interaction” value is listed as “decreasing interaction”.

In the next assay the parent is B5. The following applies: with stb3_yeast STB3, Q12427.
T6E: the “effect of a mutation on the interaction” value is recorded as “increasing interaction”.
